Target: insulin receptor (IR), B-isoform (UniProt P06213)
Assay: relative binding affinity to insulin receptor, displacement of 125I-human insulin

Question: “ester insulin lispro folded (2) (ligand)” was tested. Which relative activity (relative binding affinity) did it give?
Answer: < 0.5%

— patent US20120220522A1
